Measurements published in patent US20210063414A1, “METHODS FOR PREVENTING AND/OR TREATING BONE LOSS CONDITIONS BY MODULATING IRISIN” (Dana-Farber Cancer Institute, Inc., priority 2018, published 2021).

Target: T1, MLO-Y4 cell surface proteins (Mus musculus, UniProt P04117)
T1 construct: endogenous in cells; host or cells: MLO-Y4
T1 sequence (P04117 1-132): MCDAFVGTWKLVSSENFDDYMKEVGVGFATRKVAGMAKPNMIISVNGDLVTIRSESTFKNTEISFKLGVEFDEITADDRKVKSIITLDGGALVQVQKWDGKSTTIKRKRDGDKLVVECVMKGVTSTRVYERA
Assay: Crosslinking/co-immunoprecipitation/mass spectrometry (TMT quantitative proteomics) to identify irisin receptors
Type: binding
Settings: co-precipitated protein Fabp4 (FABP4_MOUSE)
Method in brief: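 Mouse MLO-Y4 cells were switched to serum-free FreeStyle medium for 4 h, chilled, then exposed to 10 nM His-tagged irisin (or adipsin as control) for 20 min. Cells were crosslinked with 1.5 mM DTSSP (30 min, ice), and bound proteins were pulled down on Ni-NTA and eluted with 250 mM imidazole. Eluates were separated by SDS-PAGE, trypsin-digested in gel, TMT 6-plex labelled and quantified by MS3-based LC-MS/MS on an Orbitrap Fusion Lumos.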

B1: irisin: secreted cleaved form of FNDC5; recombinant human/mouse irisin with C-terminal his tag produced in HEK293 cells (protein)
chain: DSPSAPVNVTVRHLKANSAVVSWDVLEDEVVIGFAISQQKKDVRMLRFIQEVNTTTRSCALWDLEEDTEYIVHVQAISIQGQSPASEPVLFKTPREAEKMASKNKDEVTMKE
modifications: left off: small tags and cut ends
notes: secreted cleaved form of FNDC5; recombinant human/mouse irisin with C-terminal his tag produced in HEK293 cells
TMT signal-to-noise ratio: 40.1352 | irisin/adipsin TMT signal-to-noise ratio: 0.054
